Results from patent publication US20240317847A1 (Bayer, published 2024).

Assays:
murine IL-11 = target: T1, murine IL-11 (mouse, UniProt P47873 22-199); assay: Tri-complex ELISA, mIL-11 + mIL-11Ra-Fc + mgp130-Fc, inhibition of complex formation
T1 construct: Invigate recombinant protein; biotinylated when immobilized in the Di-complex ELISA; also called mIL11; mIL-11
T1 sequence: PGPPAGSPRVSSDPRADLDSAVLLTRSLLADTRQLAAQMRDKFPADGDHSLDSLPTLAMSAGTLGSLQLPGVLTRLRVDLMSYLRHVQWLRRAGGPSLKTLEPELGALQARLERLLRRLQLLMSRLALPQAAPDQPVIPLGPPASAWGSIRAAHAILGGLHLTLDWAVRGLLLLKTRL
Procedure: In a first step, 25 μl of goat anti human IgG (Sigma, #12136), diluted 1:1000 in coating buffer (Candor, #121125) was coated on the plate at 4° C. overnight. Next day, the plate was washed one time with 50 μl PBST and then blocked with 50 μl SmartBlock (Candor, #113125) for one hour at room temperature (RT). […] After three additional washes of the coated and blocked microtiter plate with PBS-T, 25 μl of each mixture were added and the assay plate was incubated for one hour at room temperature. After three additional washes, anti-mouse-gp130 biotinylated antibody (R&D, #BAF468) or anti-human gp130 biotinylated antibody (R&D, #BAF228), both 1:1000 in 10% SmartBlock PBS-T, was added and incubated for 1 hour at RT. After three additional washes, a Streptavidin-Peroxidase conjugate (Sigma, #S5512) 1:1000 in SmartBlock PBS-T was added and incubated for one hour at room temperature. After a final three washes, AmplexRed (Fisher Scientific, A12222), 1/1000 in PBS, 0,003% H₂O₂, was added as substrate and incubated for 15 min at RT in the dark. Then, the fluorescence was measured with a plate reader at 535/595 nm. Signals from dose responses were used to calculate IC50 values using GraphPad Prism software. Efficacy was calculated as [(signal measured at lowest antibody concentration−signal measured at the highest antibody concentration)×100] divided by (signal measured at lowest antibody concentration−signal measured in the absence of antibody at an IL11 concentration of 8.2E-11 [M]).
(§1) IgG converted antibodies were subjected to the experimental assay procedure described in Example 19 and IC50 [M], respectively efficacy (%) were calculated accordingly.

human IL2Ra = target: T2, human IL2Ra (human, UniProt P01589 22-240, limits assumed); assay: ELISA on coated IL2Ra, signal ratio to isotype control TPP-10159 at 3.3E-7 M antibody
T2 construct: coated on the ELISA plate; also called IL-2 receptor alpha
T2 sequence (looked up): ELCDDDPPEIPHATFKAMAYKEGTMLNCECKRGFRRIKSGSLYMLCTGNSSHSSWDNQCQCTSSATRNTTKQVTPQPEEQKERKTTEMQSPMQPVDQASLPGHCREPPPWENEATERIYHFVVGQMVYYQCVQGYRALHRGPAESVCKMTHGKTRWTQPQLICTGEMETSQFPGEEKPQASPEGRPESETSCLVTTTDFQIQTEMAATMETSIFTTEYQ
Procedure: IL2RA (Peprotech, Germany, #200-02RC) was coated at 1 or 0 μg/ml (buffer only control) in 30 μl coating buffer (Candor, #113500) per well on a 384 well microtiter plate (Maxisorb, Nunc, #460518) over night at 4-8° C. After two washes with 50 μl/well washing buffer (PBS+0.05% Tween, pH 7.4), the plates were incubated for two hours at room temperature with 50 μl/well SmartBlock (Candor, #113500). After blocking, the plates were washed three times with washing buffer. Then, a dilution series of the respective antibody (1E-7 [M] down to 2E-13 [M]) in PBS+0.05% Tween, 10% SmartBlock were added in 30 μl to the microtiter plate and incubated for 90 min at room temperature. After three additional washes, 30 μl anti mouse IgG HRP-conjugated antibody (Biotechne, HAF007), diluted 1:1000 in PBS+0.05% Tween (pH 7.4), were added per well and incubated for one hour. After three additional washes, a mixture of Amplex red (Invitrogen, #12222, 10 mM stock solution in DMSO) 1:1000 diluted in PBS and H2O2 (30%, Merck, #107209)) diluted 1:10000 in PBS were added as substrate with 30 μl per well and incubated for 20 min in the dark. Relative fluorescence was measured with a microtiter plate reader at 535/590 nm.
IgG converted antibodies TPP-were tested for binding to IL2Ra as described in Example 20. The ratios of the signals obtained at an antibody concentration of 3.3E-7 [M] for IgG converted antibody versus the isotype control TPP-10159 were calculated and are shown in Table E22.

human IL-11 = target: T3, human IL-11 (human, UniProt P20809 22-199); assay: Tri-complex ELISA, hIL-11 + mIL-11Ra-Fc + hgp130-Fc, inhibition of complex formation
T3 construct: Invigate recombinant protein; biotinylated when immobilized in the Di-complex ELISA; also called hIL11; hIL-11
T3 sequence: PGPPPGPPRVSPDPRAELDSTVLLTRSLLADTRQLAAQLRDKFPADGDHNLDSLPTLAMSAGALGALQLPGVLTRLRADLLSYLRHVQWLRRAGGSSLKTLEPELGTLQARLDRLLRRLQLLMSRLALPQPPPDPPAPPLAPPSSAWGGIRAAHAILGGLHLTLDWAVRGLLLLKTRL
Procedure: In the Tri-complex ELISA format IL-11 antibodies are tested for their ability to inhibit the formation of a complex consisting of murine or human gp130-Fc fusion protein, with murine or human IL-11, and a murine IL11RA-Fc fusion protein. The assay format was adapted according to FIG. 18 (a, b), depending on whether murine or human IL-11 IgG antibodies were tested.
as §1

B1: TPP-29522 (antibody, mouse IgG1)
heavy: QVQLVESGGGVVQPGRSLRLSCAASGFTFSHYDMHWVRQAPGKGLEWVAVISYEGSNKFYADSVKGRFTISRDNSKNTLYLQMNSLRAEDTAVYYCARTPGFHFDYWGQGTLVTVSSAKTTPPSVYPLAPGSAAQTNSMVTLGCLVKGYFPEPVTVTWNSGSLSSGVHTFPAVLQSDLYTLSSSVTVPSSTWPSETVTCNVAHPASSTKVDKKIVPRDCGCKPCICTVPEVSSVFIFPPKPKDVLTITLTPKVTCVVVDISKDDPEVQFSWFVDDVEVHTAQTQPREEQFNSTFRSVSELPIMHQDWLNGKEFKCRVNSAAFPAPIEKTISKTKGRPKAPQVYTIPPPKEQMAKDKVSLTCMITDFFPEDITVEWQWNGQPAENYKNTQPIMDTDGSYFVYSKLNVQKSNWEAGNTFTCSVLHEGLHNHHTEKSLSHSPGK
light: QSVLTQPPSASGTPGQRVTISCSGSSSNIGSNYVNWYQQLPGTAPKLLIYYDDLRPSGVPDRFSGSKSGTSASLAISGLRSEDEADYYCSAWDDSLSGVVFGGGTKLTVLGQPKSSPSVTLFPPSSEELETNKATLVCTITDFYPGVVTVDWKVDGTPVTQGMETTQPSKQSNNKYMASSYLTLTARAWERHSSYSCQVTHEGHTVEKSLSRADCS
notes: mIgG1, Lambda
Efficacy (%) (murine IL-11): 85.4%
IC50 (murine IL-11): 0.11 nM
Antibody/Isotype Control Ratio of IL-2Ra Binding Signals (human IL2Ra): 0.7 ratio
Efficacy (%) (human IL-11): 85.4%
IC50 (human IL-11): 2 nM
